Laboratory results taken from paper PMC7352323, “Regulation of Actin Filament Length by Muscle Isoforms of Tropomyosin and Cofilin” (International Journal of Molecular Sciences, 2020).

Experiments:
Conditions in all cases: both partners purified
[1] = biological target: T1, F-actin (actin isolated from rabbit pectoral muscle, polymerised) (rabbit, UniProt P68135 1-377); experiment: co-sedimentation; dissociation of tropomyosin from the filament by cofilin-2: 3 µM F-actin, 1 µM Tpm1.1 or Tpm3.12, 0-10 µM cofilin-2; tropomyosin/actin densitometric ratio against cofilin-2/actin molar ratio, fit to a modified Hill equation; same gels as for cofilin-2 binding in the presence of tropomyosin
[2] = biological target: T2, F-actin initially saturated with Tpm3.12 (rabbit | human, UniProt P68135 1-377; P06753 1-285); experiment: co-sedimentation; 0-10 µM cofilin-2 with 3 µM F-actin alone or initially saturated with 1 µM Tpm1.1 or Tpm3.12, 20 min at room temperature; 100 mM NaCl, 2 mM MgCl2, 1 mM DTT, pH 7.5; apparent Kapp from the Hill equation, K0 and ω from the McGhee and von Hippel linear lattice model
[3] = biological target: T3, F-actin initially saturated with Tpm1.1 (rabbit | human, UniProt P68135 1-377; P09493 1-284); experiment: as above
[4] = biological target: T1, F-actin (actin isolated from rabbit …); experiment: as above
[5] = biological target: T2, F-actin initially saturated with Tpm3.12; experiment: as above; remark: listed apart in the source
[6] = biological target: T3, F-actin initially saturated with Tpm1.1; experiment: as above; remark: listed apart in the source
[7] = biological target: T1, F-actin (actin isolated from rabbit …); experiment: as above; remark: listed apart in the source

- cofilin-2/actin molar ratio at 50% dissociation of Tpm1.1 from F-actin [1]: 0.75 cofilin-2/actin
- cofilin-2/actin molar ratio at 50% dissociation of Tpm3.12 from F-actin [1]: 0.71 cofilin-2/actin
- K0 (affinity for an isolated binding site, linear lattice model) [2]: 0.21 µM⁻¹
- Ka [2]: 5.8e+06 M⁻¹
- ω (cooperativity coefficient, linear lattice model) [2]: 10
- K0 (affinity for an isolated binding site, linear lattice model) [3]: 0.17 µM⁻¹
- Ka [3]: 6.3e+06 M⁻¹
- ω (cooperativity coefficient, linear lattice model) [3]: 12
- K0 (affinity for an isolated binding site, linear lattice model) [4]: 0.01 µM⁻¹
- Ka [4]: 5.7e+06 M⁻¹
- ω (cooperativity coefficient, linear lattice model) [4]: 50
- stoichiometry N [5]: ~1 cofilin-2 per actin
- stoichiometry N [6]: ~1 cofilin-2 per actin
- stoichiometry N [7]: ~1 cofilin-2 per actin
B1: mouse cofilin-2, recombinant, GST tag removed (natural protein)
chain: MASGVTVNDEVIKVFNDMKVRKSSTQEEIKKRKKAVLFCLSDDKRQIIVEEAKQILVGDIGDTVEDPYTSFVKLLPLNDCRYALYDATYETKESKKEDLVFIFWAPESAPLKSKMIYASSKDAIKKKFTGIKHEWQVNGLDDIKDRSTLGEKLGGSVVVSLEGKPL
notes: cofilin-2 (muscle isoform of cofilin), mouse cDNA; MW 18,500 Da printed; The printed MW of 18,500 Da fits the whole protein
